Assay results: patent US6001575

These substances were tested against GRIP (full length, 1112 amino acids, 130 kDa protein) (rat).

Row | Substance | GluR1 Clusters (synaptic AMPA receptor clusters in transfected spinal cord neurons) (GluR1 Clusters)
1 | myc-tagged GluR2C Δ7 (GluR2 C-terminus lacking the last 7 amino acids, transfected into neurons) (from UniProt P19491) (receptor) | 2.9
2 | myc-tagged GluR2C (C-terminal 50 amino acids of the GluR2 subunit, transfected into neurons) (from UniProt P19491) (receptor) | 1.2
3 | myc-tagged GluR1C (C-terminal 50 amino acids of the GluR1 subunit, transfected into neurons) (receptor) | 3.6
